One data set addresses T1, PNPase WT (Escherichia coli, UniProt P05055 1-711).
T1 sequence: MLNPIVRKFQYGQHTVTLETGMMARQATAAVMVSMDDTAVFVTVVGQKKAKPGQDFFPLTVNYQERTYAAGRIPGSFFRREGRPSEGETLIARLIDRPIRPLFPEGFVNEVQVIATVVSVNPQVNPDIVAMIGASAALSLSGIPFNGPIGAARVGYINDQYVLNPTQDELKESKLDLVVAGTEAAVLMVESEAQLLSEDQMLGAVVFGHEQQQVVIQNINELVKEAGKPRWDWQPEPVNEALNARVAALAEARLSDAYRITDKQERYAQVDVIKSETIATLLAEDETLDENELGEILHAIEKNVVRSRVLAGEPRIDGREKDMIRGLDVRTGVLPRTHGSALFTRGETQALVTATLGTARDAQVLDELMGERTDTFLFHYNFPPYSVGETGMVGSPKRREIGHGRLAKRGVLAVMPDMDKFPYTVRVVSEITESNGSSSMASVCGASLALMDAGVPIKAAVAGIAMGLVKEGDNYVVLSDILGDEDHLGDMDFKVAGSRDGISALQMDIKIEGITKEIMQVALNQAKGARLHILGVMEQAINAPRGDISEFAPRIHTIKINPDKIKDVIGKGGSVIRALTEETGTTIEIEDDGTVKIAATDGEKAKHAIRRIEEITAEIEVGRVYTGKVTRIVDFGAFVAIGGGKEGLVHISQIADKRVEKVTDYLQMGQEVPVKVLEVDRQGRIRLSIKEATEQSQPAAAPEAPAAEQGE
Put plainly: cryo-EM; phosphorolytic mode; 8 RNA nt modelled; EMSA: 0.4 uM RNA, PNPase trimer 1:1 and 3:1 over RNA, 20 mM Tris pH 7.5, 100 mM NaCl, 1 mM MgCl2, 1 mM DTT, 30 C 20 min; native PAA gel with 10% glycerol, Tris-glycine pH 8.5. Particulars: protein: recombinant; chain copies: 3; single strand with hairpin. For orientation: In EMSA bound probe runs differently from free probe, usually more slowly.

In data set [1] the target is T2, PNPase WT;Hfq (Escherichia coli;Escherichia coli, UniProt P05055;P0A6X3 1-711;1-102, |). As to the kind of experiment: cryo-EM; carrier complex; 50 RNA nt modelled; EMSA: 0.4 uM RNA, PNPase trimer 1:1 and 3:1 over RNA, 20 mM Tris pH 7.5, 100 mM NaCl, 1 mM MgCl2, 1 mM DTT, 30 C 20 min; native PAA gel with 10% glycerol, Tris-glycine pH 8.5. Particulars: protein: recombinant;recombinant; tags: ;; chain copies: 3;6; single strand with hairpin.

Data set [2] deals with T2, PNPase WT;Hfq. Put plainly: cryo-EM; two stacked Hfq hexamers; EMSA: 0.4 uM RNA, PNPase trimer 1:1 and 3:1 over RNA, 20 mM Tris pH 7.5, 100 mM NaCl, 1 mM MgCl2, 1 mM DTT, 30 C 20 min; native PAA gel with 10% glycerol, Tris-glycine pH 8.5. Conditions: protein: recombinant;recombinant; tags: ;; chain copies: 3;12; single strand.

B1: 3'ETSleuZ (structured_RNA)
RNA: GGGAAAGAUAAGAAUAAAAUCAAAGCAAUAAGCAGUGUCGUGAAACCACCUUCGGGUGGUUUUUUU
For the molecule B1, the binding result in the data set with PNPase WT and in the data set with PNPase WT;Hfq [1] was “binds” each time.

B2: CyaR (structured_RNA)
RNA: GCUGAAAAACAUAACCCAUAAAAUGCUAGCUGUACCAGGAACCACCUCCUUAGCCUGUGUAAUCUCCCUUACACGGGCUUAUUUUUU
Consider B2, for which the binding result with PNPase WT;Hfq [2] was “binds”.

Values taken from paper PMC8294330, “A cooperative PNPase-Hfq-RNA carrier complex facilitates bacterial riboregulation”.
